Measurements: US20260275324A1, “UNNATURAL AMINO ACID IN CELLULO SYNTHESIS FOR SITE-SPECIFIC PROTEIN MODIFICATION” (The Chinese University of Hong Kong, priority 2023, published 2026)

Columns and labels:
[1] = target: GST-CDK4 (Sino Biological) (UniProt P11802); experiment: microscale thermophoresis (MST); Alexa Fluor 647-labelled MBP-cycP16p at 70 nM, GST-CDK4 titrated from 1.92 µM
[2] = target: GST-CDK4 (Sino Biological) (UniProt P11802); experiment: microscale thermophoresis (MST), against linear MBP-P16p as reference
[3] = target: CDK4 of MCF-7 cells (endogenous) (UniProt P11802); experiment: cell-based or functional assay
α-synuclein = α-synuclein (Homo sapiens, UniProt P37840); settings: in vitro and in vivo, Liang et al. 2021; cited from earlier work

GST-CDK4 (Sino Biological), sequence (P11802 whole entry): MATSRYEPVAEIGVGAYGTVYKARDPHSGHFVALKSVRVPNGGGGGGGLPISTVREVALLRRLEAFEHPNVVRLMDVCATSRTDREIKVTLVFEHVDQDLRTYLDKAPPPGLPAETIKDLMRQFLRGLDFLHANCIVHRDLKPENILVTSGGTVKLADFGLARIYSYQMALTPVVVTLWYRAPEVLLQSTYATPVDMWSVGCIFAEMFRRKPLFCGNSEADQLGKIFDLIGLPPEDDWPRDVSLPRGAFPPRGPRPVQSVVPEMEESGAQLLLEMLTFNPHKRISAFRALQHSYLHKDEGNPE
cycRGD-mCh-cycP16p (bifunctional bicyclic protein), sequence (P42771 83-103): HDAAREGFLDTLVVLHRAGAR

Question: Which results are given for “MBP-cycP16p (cyclized MBP-P16p protein) (from UniProt P0AEX9 27-392; P42771 83-103)”?
Answer: Kd [1]: 27.7 nM; fold higher binding affinity compared to its linear counterpart MBP-P16p [2]: 4 fold

Question: With “R9-P16p (linear P16p fused to the poly-arginine cell penetrating sequence; Pepmic) (from UniProt P42771 84-103) (peptide)” as the substance, how does the percent of MCF-7 cells arrested at G0/G1 phase (flow cytometry, 15 µM, 24 h) [3] read?
Answer: 60.7%

Question: Which “inhibition of α-synuclein aggregation” value (α-synuclein) does the source give for “SUMOmini2: earlier linear version of SUMO1 peptide (15-55), Liang et al.” here?
Answer: effectively inhibit α-synuclein aggregation in vitro and in vivo

Question: For “cycRGD-mCh-P16p (cycRGD-mCherry bearing linear uncyclized P16p) (from UniProt P42771 83-103)”, which percent of MCF-7 cells arrested at G0/G1 phase (flow cytometry, 15 µM, 24 h) [3] is on record?
Answer: 46.7%

Question: Which percent of MCF-7 cells arrested at G0/G1 at 72 h (time course) [3] does the source give for “cycRGD-mCh-cycP16p (bifunctional bicyclic protein) (from UniProt P42771 83-103)” here?
Answer: 88%

Question: What about the percent of MCF-7 cells arrested at G0/G1 phase (flow cytometry, 15 µM, 24 h) [3] of the same substance?
Answer: 76.7%
